Assay results as given in paper doi:10.1101/2021.08.18.456755.

Key:
[1] = target: (His)6-tagged Pf-Ubc9 (Plasmodium falciparum); assay: pull-down
[2] = target: (His)6-tagged Hs-Ubc9 (human) (UniProt P63279); assay: pull-down
[3] = target: Pf-Ubc9 (Plasmodium falciparum E2 conjugating enzyme), untagged (Plasmodium falciparum); assay: ITC
[4] = target: Hs-Ubc9 (human E2 conjugating enzyme Ubc9), untagged (human) (UniProt P63279)
[5] = target: Pf-SUMO D90A mutant, untagged (ITC, SPR, NMR) (Plasmodium falciparum); assay: SPR
[6] = target: Hs-Ubc9 (human E2 conjugating enzyme Ubc9), untagged (human) (UniProt P63279); assay: ITC

Substance: Hs-SUMO1 as prepared for pull-down and SUMOylation assays (GST-tagged preparation) (from UniProt P63165 1-97) (natural protein)
- relative binding affinity (quantified pull-down) [1]: 12%

Substance: Pf-SUMO wild type as prepared for pull-down and SUMOylation assays (GST-tagged preparation) (natural protein)
- relative affinity (quantified pull-down) [2]: 67%

Substance: Pf-SUMO D90A mutant, untagged (ITC, SPR, NMR) (natural protein)
- Kd [3]: 2.5 µM
- fold change of the dissociation constant against the wild type [4]: 4 fold

Substance: Pf-Ubc9 (Plasmodium falciparum E2 conjugating enzyme), untagged
- Kd [5]: 3.02 µM

Substance: Pf-SUMO D68K mutant (pull-down preparation) (natural protein)
- reduction of binding against Pf-SUMO wild type (quantified pull-down) [2]: 90%

Substance: Pf-SUMO D68A mutant (pull-down preparation) (natural protein)
- reduction of binding against Pf-SUMO wild type (quantified pull-down) [2]: 90%

Substance: Pf-SUMO D90K mutant (pull-down preparation) (natural protein)
- reduction of binding against Pf-SUMO wild type (quantified pull-down) [2]: 90%

Substance: Pf-SUMO D90A mutant (pull-down preparation) (natural protein)
- reduction of binding against Pf-SUMO wild type (quantified pull-down) [2]: 90%

Substance: Pf-SUMO (Plasmodium falciparum SUMO, mature form Pf-SUMO-GG), untagged (natural protein)
- Kd [6]: 27.4 µM
- Kd [3]: 4.05 µM
